Source: patent US8440629B2, “Cyclic receptor-associated protein (RAP) peptides” (Raptor Pharmaceuticals Inc., priority 2007, dated 2013)
pEC50, pKd: −log10 of the molar value. Where two headings read alike, the source gives them in different places. Positions of bridges follow the written chain, without caps; N, C: chain ends. No end group written: not given here.

Tests used:
rhLRP1 cluster II = biological target: T1, rhLRP1 cluster II (Homo sapiens, UniProt Q07954); assay: Solid phase binding assay of RAP peptides
T1 construct: rhLRP1 cluster II (aa 786-1165, C-terminal Fc, 1 μg); purchased R&D Systems; host or cells: NS0
T1 sequence (Q07954 786-1165): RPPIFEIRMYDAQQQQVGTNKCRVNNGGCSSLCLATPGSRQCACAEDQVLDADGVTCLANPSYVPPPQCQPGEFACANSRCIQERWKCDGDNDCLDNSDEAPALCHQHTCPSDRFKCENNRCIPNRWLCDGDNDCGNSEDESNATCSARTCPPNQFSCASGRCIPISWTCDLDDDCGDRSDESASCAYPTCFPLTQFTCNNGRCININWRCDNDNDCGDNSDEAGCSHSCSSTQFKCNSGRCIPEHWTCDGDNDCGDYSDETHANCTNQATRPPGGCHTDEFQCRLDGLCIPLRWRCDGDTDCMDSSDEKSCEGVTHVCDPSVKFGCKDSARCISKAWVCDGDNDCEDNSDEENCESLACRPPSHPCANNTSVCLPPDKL
Procedure: Solid phase binding assays were carried out as follows. Recombinant murine VLDLR ectodomain (aa 1-798, C-terminal hexahistidine, 1 μg) or rhLRP1 cluster II (aa 786-1165, C-terminal Fc, 1 μg) were bound to Nunc Maxisorp™ 96-well plates in TBS pH 8 supplemented with 5 mM CaCl2 (TBSC) overnight at 4° C. Wells were washed with TBSC and then blocked with TBSC containing 2% BSA. Peptides were then incubated with the immobilized receptor at a range of concentrations for 2 hours in the above blocking buffer supplemented with 0.05% Tween-20 at room temperature. Identical binding reactions were done in the presence of 50 mM EDTA to provide a measure of non-specific binding. Control wells contained no added peptide. Additional controls established absence of cross-reactivity between antibodies and receptors. Wells were washed with TBSTC and bound peptides detected with streptavidin-HRP (Pierce) or polyclonal anti-RAP (1:1,000, Raptor Pharmaceutical). […] Absorption at 450 nm was measured with a microplate spectrophotometer (Molecular Devices). […]
The binding affinity of the peptides for LRP1 and VLDLR, another receptor in the LDLR family, was measured as follows. […] Bound peptides were detected with streptavidin-HRP after extensive washing. Binding values measured in the presence of EDTA were subtracted from values measured in the absence of EDTA in order to determine calcium-dependent binding levels. […]

[1] = biological target: T2, LRP1 cluster II (LRP1-C2) (Homo sapiens, UniProt Q07954); assay: Inhibition of RAP d3 binding to LRP1-C2 (ELISA)
T2 construct: recombinant human LRP1 cluster II (amino acids 786-1165, with C-terminal Fc tag); purchased R&D Systems; host or cells: NS0
T2 sequence (Q07954 786-1165): T1 sequence (Q07954 786-1165)
Procedure: Binding inhibition assays were also carried out to determine the ability of the mRAPc peptide to interfere with RAP d3 binding to LRP1 (cluster II), as well as binding of LRP ligands α-2-macroglobulin and uPA/PAI-1. To allow complexation with streptavidin or an anti-biotin antibody, the mRAPc peptide was fitted with an N-terminal biotin residue separated from the RAP sequence by a pentapeptide linker (GGSGG). Solid phase binding assays were performed using recombinant human LRP1 cluster II (amino acids 786-1165, with C-terminal Fc tag, 1 μg, R&D Systems, Minneapolis, Minn.) to coat Nunc MAXISORP™ 96-well plates in TBS pH 8 supplemented with 5 mM CaCl2 (TBSC) overnight at 4° C. Data was generated by ELISA assay. Wells were washed with TBSC and blocked with TBSC containing 2% BSA. In assays involving complexes between streptavidin and biotinylated peptide, LRP1 ligands (RAP d3 (2 nM), trypsin-activated α-2-macroglobulin (1 nM) or uPA/PAI-1 (10 nM) were incubated with the immobilized receptor, in the presence or absence of inhibitors, for 2 hours in the above blocking buffer supplemented with 0.05% Tween-20 at room temperature. In assays involving complexes of the anti-biotin antibody and biotinylated peptide, all inhibitor solutions were pre-incubated with immobilized LRP1-C2 prior to washing and subsequent incubation with ligand. Since the ligand binding competence of CR pairs requires calcium, identical binding reactions were done in the presence of 50 mM EDTA to provide a measure of non-specific binding. Control wells contained no added inhibitor. Wells were washed with TBS supplemented with 5 mM CaCl2 and 0.05% Tween-20. Bound ligand was detected with either anti-S-peptide-HRP conjugate (Abcam, Cambridge, Mass.), anti-α-2-macroglobulin-HRP or anti-PAI-1-HRP. Excess HRP conjugate was removed and wells washed. Color was developed using TMB reagents (BioRad, Hercules, Calif.). Absorption at 450 nm was measured with a microplate spectrophotometer (Molecular Devices, Palo Alto, Calif.).
The ability of mRAPc, in the presence and absence of either streptavidin or anti-biotin antibody, to inhibit binding of recombinant RAP d3 to LRP1-C2 was measured. […] The multifold enhancement of inhibition seen in the presence of streptavidin is consistent with an improvement in avidity upon multimerization of the minimized RAP domain.
Given the relatively weak monovalent affinity of the anti-biotin antibody for biotin (low nanomolar KD), it was hypothesized that preassembly of a multivalent complex consisting of two, suitably proximate, receptor-bound peptides and a single antibody would stabilize the peptide-antibody complex. Therefore, the antibody and peptide, in a molar ratio of one to three, was incubated with the immobilized receptor prior to washing and subsequent addition of the RAP d3 ligand. The same procedure was performed for the controls; peptide alone, antibody alone and RAP. […] Next the effect of the multimerized mRAPc was determined. The multimerized mRAPc was compared to the mRAPc monomer and full-length RAP in the inhibition of binding of two other ligands to LRP1-C2, trypsin-activated α-2-macroglobulin and the uPA/PAI-1 complex, at a single ligand concentration. […] In both cases, the complex of streptavidin and mRAPc inhibited binding with an EC50 approximately midway between RAP and the mRAPc monomer.

LDLR, LRP5 and LRP6 = details: cited from earlier work
[2] = biological target: LRP1, LRP1B, LRP2, SorLA, apoER2 and VLDLR; details: read-out: dissociation constants; cited from earlier work

CEAKIEKHNHYQKQLEIAHEKLRHAESVGDGERVSRSREKHALLEGRTKELGYTVKKHGC (disulfide 1-60) [mRAP-14c]
pKd (rhLRP1 cluster II): ~7.68

RAP: receptor-associated protein, mature human RAP (SEQ ID NO: 95)
EC50 better than peptide assembled on streptavidin ([1]; FIG. 14A): about 8 fold
EC50 improvement over monomeric mRAPc peptide ([1]; FIG. 14A): 64 fold
pEC50 ([1]; inhibitor pre-incubated with immobilized receptor, washed, then ligand, FIG. 14B, read-out: EC50 of inhibition of RAP d3 binding): 9.52
pEC50 ([1]; ligand and inhibitor incubated together, FIG. 14A, read-out: degree of inhibition (EC50) of RAP d3 binding): 9.30
affinity lower than for LRP1 (LDLR, LRP5 and LRP6): at least 10 fold
pKd [2]: > 8.30

streptavidin: streptavidin alone, control
inhibitory effect (in words) ([1]; ligand and inhibitor incubated together): no inhibitory effect
